Patent US10059748B2, “Pharmaceutical compositions for prevention or treatment of neurodegenerative diseases” (INSERM (INSTITUT NATIONAL DE LA SANTÉ ET DE LA RECHERCHE …, priority 2014, dated 2018)

Columns and labels:
primary cortical neurons [1] = test: Kinetics of neuronal death (pyknotic nuclei, TOPRO-3) after rotenone in microfluidic cultures; type: cell-based, rat; settings: somatic application of rotenone
Method: 12 day-old neuronal cultures were subjected to oxidative stress by adding the respiratory chain complex I inhibitors rotenone (1 μM, diluted in DMEM containing 1 g/L glucose (Invitrogen), supplemented with 2 mM glutamine+1% penicillin/streptomycin+2% B-27+1% N2 supplements (Invitrogen)) or MPP+(1-methyl-4-phenylpyridinium, 10 μM in complete neuronal culture medium). The microtubule inhibitor colchicine (10 μM, complete neuronal culture medium) was used as a non-mitochondrial stress control. Toxins were added in the somatic or axonal chambers for respectively, somatic or axonal stress.
Neurons in the microfluidic cultures were fixed for 40 min at room temperature with PBS containing 4% paraformaldehyde (PFA), permeabilized using PBS+0.1% Triton-X100 during 20 min, rinsed with PBS, and blocked for 2 h with PBS+2.5% normal goat serum+3% BSA (blocking buffer). […] Fluorescence-based analyses and measurements were performed on either Zeiss LSM-510 or Zeiss LSM-710 inverted confocal microscopes with a 40× objective (63× objective for the analysis of mitochondrial network morphology and quantification of pDrp1 (S616) immunoreactivity). Immuno fluorescence analyses of Drp1 were performed using anti-pDrp1 (S616) (Cell Signaling Technologies, diluted 1:1000). Quantification of fluorescence intensities was performed using the threshold-based fluorescence quantification module of ImageJ software. […]

[2] = test system: Drp1 (S616) phosphorylation; test: Immunofluorescence quantification of phospho-Drp1 (S616); type: cell-based, rat
Method: Neurons in the microfluidic cultures were fixed for 40 min at room temperature with PBS containing 4% paraformaldehyde (PFA), permeabilized using PBS+0.1% Triton-X100 during 20 min, rinsed with PBS, and blocked for 2 h with PBS+2.5% normal goat serum+3% BSA (blocking buffer). Incubation for at least 2 h at room temperature with primary antibodies diluted in blocking buffer was followed, after extensive washes in PBS, by 1 h incubation at room temperature with fluorescently-conjugated secondary antibodies diluted in PBS. For TOPRO3 staining, somatic chambers were incubated with TOPRO3 (1:1000 in PBS; Invitrogen) for 10 min and then rinsed twice in PBS. All incubation and washes were reduced by 50% for neurons grown in standard coverslips. Fluorescence-based analyses and measurements were performed on either Zeiss LSM-510 or Zeiss LSM-710 inverted confocal microscopes with a 40× objective (63× objective for the analysis of mitochondrial network morphology and quantification of pDrp1 (S616) immunoreactivity). Immuno fluorescence analyses of Drp1 were performed using anti-pDrp1 (S616) (Cell Signaling Technologies, diluted 1:1000). Quantification of fluorescence intensities was performed using the threshold-based fluorescence quantification module of ImageJ software. All data were normalized on βIII-tubulin staining.

OPA1, Mfn1/2, Fis1, Drp1 = test: Expression and recruitment of mitochondrial fission/fusion actors; type: cell-based; settings: X-expressing cells
primary cortical neurons [3] = test: Axonal fragmentation in microfluidic primary neuron cultures after toxin treatment; type: cell-based, rat; settings: neurons transduced with lentiviral vectors; rotenone in axonal chamber 16 h
Method: Primary cortical neurons were prepared from Sprague-Dawley rat embryos at gestational day 17. After dissection, cortex tissue was dissociated by a 15 min incubation at 37° C. in PBS containing 10 U/ml Papain (Worthington), followed by a gentle dissociation in PBS containing 1.5 mg/ml bovine serum albumin (BSA) and 1.5 mg/ml Trypsin inhibitor (from chicken egg, Sigma-Aldrich). After centrifugation through a 4% BSA cushion, neurons were plated on culture dishes coated with 0.5 mg/ml Poly-DL-Ornithine (PO, overnight, Sigma-Aldrich) and 5 mg/ml Laminin (2 h, Roche). Neuronal cultures were maintained in complete neuronal culture medium composed of serum-free Neurobasal (Gibco) supplemented with 2 mM L-Glutamine, 100 μg/ml penicillin/streptomycin (Gibco) and 2% B-27 supplement (Gibco). […]
The analysis of axonal degeneration was performed both by phase contrast observation and after immunostaining of axonal βIII-tubulin (Sigma-Aldrich). […] For each microfluidic culture, the total βIII-tubulin staining area was measured on 4 randomly selected pictures taken in the axonal chamber (MetaMorph software analysis, fixed thresholds). Then, the number of tubulin spots of fragmented axons was manually counted (Imaris software, Spot counting for “clicking” records) and the ratio between the number of spots and the total staining area was defined as a fragmentation index. […]

[4] = test system: ROS production in primary neurons; test: ROS production measurement (c-H2DCFDA); type: cell-based, rat; settings: LV-transduced neurons, no stress
Method: The culture medium was removed from the axonal or somatic chambers and replaced by pre-warmed PBS containing carboxy-2′,7′-dichlorodihydrofluorescein diacetate (c-H2DCFDA, 5 μM in PBS; LifeTechnologies) for 45 min at 37° C., 5% CO2. After 2 washes in PBS, cultures were returned to warm culture medium for 30 min. Cells were fixed and the integrative fluorescence was measured on 3 randomly selected fields for each axonal chamber. Tert-butyl hydroperoxide (TBHP, LifeTechnologies) was used as a positive control of ROS detection. ROS amounts were detected by fluorescence (excitation/emission: 495/529 nm) and quantified by measuring integrative emission signal intensities for each culture (mean of 4 randomly taken pictures in the case of microfluidic cultures using Zeiss LSM 510 confocal; signal intensity of the whole culture for traditional cultures, using a VarioSkan Flash fluorescence reader (Thermo Electron)).

[5] = test system: mitochondrial network of primary neurons; test: Analysis of mitochondrial network morphology (Tom20 staining); type: cell-based, rat
Method: Primary cortical neurons were prepared from Sprague-Dawley rat embryos at gestational day 17. After dissection, cortex tissue was dissociated by a 15 min incubation at 37° C. in PBS containing 10 U/ml Papain (Worthington), followed by a gentle dissociation in PBS containing 1.5 mg/ml bovine serum albumin (BSA) and 1.5 mg/ml Trypsin inhibitor (from chicken egg, Sigma-Aldrich). After centrifugation through a 4% BSA cushion, neurons were plated on culture dishes coated with 0.5 mg/ml Poly-DL-Ornithine (PO, overnight, Sigma-Aldrich) and 5 mg/ml Laminin (2 h, Roche). Neuronal cultures were maintained in complete neuronal culture medium composed of serum-free Neurobasal (Gibco) supplemented with 2 mM L-Glutamine, 100 μg/ml penicillin/streptomycin (Gibco) and 2% B-27 supplement (Gibco).
Neurons were grown for 9 days at low density on 12 mm diameter glass coverslips placed in 24-well plates (5×10^4 cells per well). Transduction with lentiviral vectors was performed on day 3, whereas peptide was added to the medium on day 9. Neurons were left untreated or subjected to rotenone treatment (5 to 100 nM for 2 h, diluted in PBS), rinsed, fixed and directly stained for neuronal marker (βIII-tubulin) and mitochondria (Tom20, Santa Cruz Biotech.). Confocal pictures were taken and blinded to the investigator before image analysis. The sizes of mitochondria in all neuronal extensions of randomly selected neurons were determined using ImageJ software and mitochondria were classified in size categories (ranging from <2 μm to >8 μm). Each category was expressed as percentages relative to the size of the total mitochondrial network for a given neuron.

[6] = test system: mitochondrial membrane potential (ΔΨm) of primary neurons; test: Mitochondrial membrane potential analysis (JC-1); type: cell-based, rat; settings: LV-transduced neurons, no stress
Method: Axons were stained with JC-1 dye (2 μM in PBS; LifeTechnologies) as described by the manufacturer. Briefly, JC-1 was added to the culture medium for 45 min at 37° C., 5% CO2, washed twice with PBS and analyzed by confocal microscopy using 488 nm excitation together with 530 nm and 585 nm band pass emission filters, whilst maintaining the cells at 37° C. and 5% CO2. Total fluorescence intensity was measured for each emission band pass with fixed thresholds and ratios between “red” (585 nm: active mitochondria) and “green” (530 nm: total mitochondria network) were determined for each culture (means of 4 randomly chosen pictures for each microfluidic culture).

[7] = test system: oxygen consumption rates of primary neurons; test: Mitochondrial respiration measurements (Seahorse XF24 OCR); type: cell-based, rat; settings: LV-transduced neurons, no stress
Method: Real-time measurements of oxygen consumption rates (OCR) were performed using a Seahorse XF24 extracellular flux analyzer (Seahorse Bioscience). Neurons were seeded and grown for 9 days in Seahorse XF24-wells plates (3×10^4 cells/well). Transduction with lentiviral vectors was performed on the 3rd day after seeding. Before measurements, the culture medium was replaced by warm respiration medium: DMEM without phenol red supplemented with 10 mM glucose, 2 mM L-Glutamine and 2 mM Pyruvate (Gibco) (the pH of the final culture medium was adjusted to 7.4). Following three 2-minute baseline measurements of OCR (3 minute-rest between each measure), mitochondrial complex inhibitors were sequentially injected into each well. Three OCR readings were taken after addition of each inhibitor and before automated injection of the subsequent inhibitor. Mitochondrial complex inhibitors, in order of injection, were Oligomycin (2 μM) to inhibit complex V (i.e., ATP synthase), FCCP (20 μM) to uncouple the proton gradient, Rotenone (2.0 μM), to inhibit complex I and Antimycin (2.0 μM), to inhibit complex III. OCR values were automatically calculated, recorded, and plotted by the Seahorse XF24 software.

[8] = test system: nigrostriatal dopaminergic (DA) neurons; test: MPTP intoxication mouse model of PD, TH immunodetection in striatum and SNpc; type: in vivo; settings: lentiviral vector, stereotaxic injection in SNpc two weeks before MPTP
Method: Peptides covering the N-terminal (PX1, aa 1-30), middle (PX2, aa 29-59) or C-terminal (PX3, aa 59-87) parts of BDV X protein (GenBank: ABW81015.1) coupled to the MPP sequence were synthesized to >95% (in vitro studies) or >99% (in vivo studies) purity (Génosphère). For in vitro experiments, neurons were grown for 12 days before replacing the medium by fresh complete neuronal culture medium containing 5 μM of the peptides. The cultures were maintained 90 min at 37° C., 5% CO2 before any treatment or analysis to ensure peptide penetration into neuronal mitochondria. For intra-cerebroventricular delivery, peptides were injected as described below. For intranasal peptide delivery, 10 μl drops of peptide solution (1 mM solution in saline: H2O+0.9% NaCl) were placed onto the mice nostrils daily from the day before to the 3rd day after MPTP intoxication. […]
For immunohistochemical staining, free-floating brain sections were first quenched for 5 min in 20% (v/v) methanol and 1% (v/v) hydrogen peroxide diluted in PBS, then blocked for 30 min in a 4% solution of BSA diluted in PBS-0.3% Triton-X100 and incubated overnight at 4° C. with a primary antibody directed against tyrosine hydroxylase (1:500 dilution, US biological). […] TH-positive neurons were quantified stereologically on regularly spaced sections covering the whole Substantia Nigra pars compacta (SNpc). […]

For `C=C(C)[C@H]1Cc2c(ccc3c2O[C@@H]2COc4cc(OC)c(OC)cc4[C@@H]2C3=O)O1` [rotenone], the “time to cell death” value (primary cortical neurons [1]) was < 4 h.

B1: X protein: 87 amino acid X protein of Borna Disease Virus, expressed from a lentiviral vector (LV-X) (protein)
chain: MSSDLRLTLLELVRRLNGNATIESGRLPGGRRRSPDTTTGTVGVTKTTEDPKECIDPTGRPAPEGPQEEPLHDLRPRPANRKGAAIE
modifications: Borna disease virus
For B1, the “enhanced Drp1 phosphorylation after treatment with rotenone” value ([2]; after rotenone) was “selectively reduced”, the “phosphorylation of Drp1 on serine-616” value ([2]; steady state) was “severely reduced” and the “expression levels of OPA1, Mfn1/2, Fis1, Drp1 vs control cells” value (OPA1, Mfn1/2, Fis1, Drp1) was “did not find any significant difference”. The “recruitment of Drp1 to the mitochondria vs control cells” value (OPA1, Mfn1/2, Fis1, Drp1) was “no difference”, the “protection against rotenone-induced axonal fragmentation” value (primary cortical neurons [3]) was “same level of axonal protection as infection with BDV” and the “impact on ROS production at steady-state” value [4] was “no impact”. For the same molecule, the rotenone-induced mitochondrial fission ([5]; after rotenone) was “significantly reduced”, the “weighted mean size of mitochondria” value ([5]; after rotenone-induced oxidative stress (10 nM rotenone 2 h)) was 4.54 μm and the “decrease of short, fragmented mitochondria (<2 μm)” value ([5]; steady state) was 60%. For the same molecule, the “weighted mean size of mitochondria” value ([5]; steady state, without rotenone) was 5.22 μm, the “impact on ΔΨm at steady-state” value [6] was “no impact” and the “impact on respiration at steady-state” value [7] was “no impact”. The “ipsilateral TH-positive neurons in the SNpc after MPTP” value [8] was “almost complete protection” and the “ipsilateral striatal fibers (TH) after MPTP” value [8] was “preservation”.
